The test system of this data set is O=C(O)/C=C/c1ccc2c(c1)OCO2. Description: GC-MS quantitation of piperonal, Michaelis-Menten fit. To be noted: 50 µM to 1.6 mM substrate; no ATP, CoA-SH or NAD+; pH of the kinetic assay not printed in main text. The format is biochemical, Piper nigrum.

In article PMC8948145, “Piperonal synthase from black pepper (Piper nigrum) synthesizes a phenolic aroma compound, piperonal, as a CoA-independent catalysis” (Applied Biological Chemistry, 2022) one finds Km and kcat data, which are given here for 1 substance.

A word on the Km: it is the concentration of substrate that gives half-maximal velocity. The term kcat denotes the maximal rate divided by the concentration of active sites.

For the substance “PnPNS (piperonal synthase; PnMCHL, 3,4-methylenedioxycinnamic acid hydratase-lyase) (Piper nigrum)”, the Km is 317.2 µM and the kcat worked out at 2.7 s⁻¹.
